B1: modified B7 antibody: B7 antibody with a cysteine residue added to the heavy-chain variable region (SEQ ID NO: 8); light-chain SEQ ID NO: 11 (antibody, V domains shown)
VH: MGWSYIILFLVATAADVHSQVQLQEWGAGLLKPSETLSLTCAVSGGSLSGHYWSWVRLPPGKGLEWIGEISHSGNTNYNSSLKSRASISIDTSKNEYSLNLKSVTAVDTAVYYCARFYGDYPSSYGMDVWGQGTTVTVSSC
VL: MGWSYIILFLVATAADVHSQSALTQPASVSGSPGQSITISCTGTISDIGTYDFVSWYQHKPGKAPKLLIFDVNNRPSGVSSRFSGSKSDNTASLSISGFQAEDEADYYCSSYTDNRGLVLFGGGTKLTVLRS
modifications: a heavy chain variable region with extra cysteine; a light chain variable region
B2: B7 antibody: c-Met-specific human whole IgG from B7 phage variable region; heavy-chain variable region SEQ ID NO: 7, light-chain SEQ ID NO: 11 (antibody, V domains shown)
VH: MGWSYIILFLVATAADVHSQVQLQEWGAGLLKPSETLSLTCAVSGGSLSGHYWSWVRLPPGKGLEWIGEISHSGNTNYNSSLKSRASISIDTSKNEYSLNLKSVTAVDTAVYYCARFYGDYPSSYGMDVWGQGTTVTVSS
VL: MGWSYIILFLVATAADVHSQSALTQPASVSGSPGQSITISCTGTISDIGTYDFVSWYQHKPGKAPKLLIFDVNNRPSGVSSRFSGSKSDNTASLSISGFQAEDEADYYCSSYTDNRGLVLFGGGTKLTVLRS
modifications: a heavy chain variable region; a light chain variable region

Target: T1, C-Met (Homo sapiens, UniProt P08581)
T1 construct: A549 cells, known to readily express the c-Met receptor; endogenous in cells; host or cells: A549 (endogenous); Cos-7 cells overexpressing c-Met
Test: FACS analysis of specific binding to c-Met
Conditions: A549 cells and Cos-7 cells that overexpressed c-Met, antibody 1:100, 4° C., 1 hour, FIG. 11
Experimental: Whether the human modified B7 antibody according to the present invention easily binds specifically to c-Met was examined by FACS analysis. Each of A549 cells, known to readily express the c-Met receptor, and Cos-7 cells that overexpressed c-Met, was prepared, washed twice with PBS, detached by treatment with trypsin, washed again with PBS, and then suspended in PBS (PBA buffer) containing 1% BSA protein. Then, the cells were treated with the purified modified B7 antibody of Example 2 at 1:100 at 4° C. for 1 hour, after which the cells were washed with PBA buffer and precipitated by centrifugation at 8000 rpm for 1 minute. The washing and precipitation process was repeated three times. Then, the modified B7 antibody was treated for 20 minutes with a 1:100 dilution of secondary antibody (Invitrogen, Alexa Fluor 488 goat anti-human IgG, #A11013) that detects human antibody. The cells were washed in the same manner as described above and analyzed by FACS analyzer (BD Cantoll Flow Cytometer), and the results of the analysis are shown in FIG. 11.

T1 sequence (P08581 25-1390): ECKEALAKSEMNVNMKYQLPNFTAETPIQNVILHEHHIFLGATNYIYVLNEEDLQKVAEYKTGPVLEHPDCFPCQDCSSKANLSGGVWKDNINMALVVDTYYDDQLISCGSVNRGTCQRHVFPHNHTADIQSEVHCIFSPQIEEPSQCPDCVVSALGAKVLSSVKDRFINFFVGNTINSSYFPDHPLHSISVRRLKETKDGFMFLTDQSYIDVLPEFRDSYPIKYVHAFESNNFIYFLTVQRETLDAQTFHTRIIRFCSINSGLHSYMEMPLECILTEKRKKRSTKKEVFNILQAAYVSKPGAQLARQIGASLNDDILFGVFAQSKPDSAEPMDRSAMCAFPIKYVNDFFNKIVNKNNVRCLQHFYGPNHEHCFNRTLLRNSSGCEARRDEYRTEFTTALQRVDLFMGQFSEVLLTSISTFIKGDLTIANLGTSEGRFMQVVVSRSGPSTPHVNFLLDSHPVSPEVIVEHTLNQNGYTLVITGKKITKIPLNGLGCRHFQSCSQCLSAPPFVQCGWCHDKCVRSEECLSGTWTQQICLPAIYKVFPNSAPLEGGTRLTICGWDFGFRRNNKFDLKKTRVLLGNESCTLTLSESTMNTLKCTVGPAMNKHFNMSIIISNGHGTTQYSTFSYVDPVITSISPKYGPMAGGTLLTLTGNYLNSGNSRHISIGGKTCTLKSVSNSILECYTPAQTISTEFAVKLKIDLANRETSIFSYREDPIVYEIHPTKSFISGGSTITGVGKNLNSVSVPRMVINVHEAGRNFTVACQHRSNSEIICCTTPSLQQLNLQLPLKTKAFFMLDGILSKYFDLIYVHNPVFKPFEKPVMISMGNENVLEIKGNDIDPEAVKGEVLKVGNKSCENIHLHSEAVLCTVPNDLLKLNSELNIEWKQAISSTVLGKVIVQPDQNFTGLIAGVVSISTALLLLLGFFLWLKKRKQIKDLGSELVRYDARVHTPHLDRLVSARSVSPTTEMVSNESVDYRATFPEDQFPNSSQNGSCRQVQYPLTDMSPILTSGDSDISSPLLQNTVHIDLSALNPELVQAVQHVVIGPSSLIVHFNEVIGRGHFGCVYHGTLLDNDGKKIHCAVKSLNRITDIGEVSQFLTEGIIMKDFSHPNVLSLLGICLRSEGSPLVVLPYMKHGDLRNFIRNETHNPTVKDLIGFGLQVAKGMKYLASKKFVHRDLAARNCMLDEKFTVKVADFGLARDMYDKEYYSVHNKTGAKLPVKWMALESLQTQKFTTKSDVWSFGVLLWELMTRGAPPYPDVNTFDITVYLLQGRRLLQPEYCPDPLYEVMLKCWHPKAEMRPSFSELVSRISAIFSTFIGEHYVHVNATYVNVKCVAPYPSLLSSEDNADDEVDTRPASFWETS

Molecule	specific binding to c-Met by FACS	specific binding to c-Met by FACS (listed as original B7 antibody)
B1	did bind specifically to c-Met	
B2	bind specifically to c-Met	specifically recognizes c-Met

From patent publication US9364556B2, “Drug conjugate comprising drug linked to human c-Met antibody, and use therefor” (Korea Research Institute of Bioscience and Biotechnology, priority 2011, dated 2016)
